Measurements from patent US20150352233A1.

Molecular target: Membrane Preparation Recombinant Human GLP-1 (GLP-1R) (human) (UniProt P43220)

## non-labeled exendin4 (peptide; other documents disagree on this pair)
  IC50: 0.19 nM
